Among the data in patent US20090110686A1 are IC50, cell-cell fusion assay (gp160-expressing HeLa cells with CEM.NKR-CCR5-Luc cells, luciferase) values, retold here.

In this assay the target is human CC chemokine receptor CCR5 (human) (UniProt P51681). Description: cell-based or functional assay.

B1: anti-CCR5 antibody with heavy chain variable domain SEQ ID NO: 6 and light chain variable domain SEQ ID NO: 9, mutated IgG1 (IgG1v2) constant region (antibody, name in EU numbering, V domains shown)
VH: QVQLQESGPGLVKPSQSLSITCTVSGFPLGAFGVHWVRQSPGKGPEWLGVIWKGGNTDYNAAFKSRLRITKDNSKSQVFFRMNSLQTDDTATYYCAKVNLADAMDYWGQGTTVTVSS
VL: DIQMTQSPASLSASVGETVTITCRASGNAHGYLAWYQQKPGKAPKLLIYNTKTLAEGVPSRFSGSGSGTQFSLKINSAQPEDFGNYYCQHHYDLPRTFGGGTKVEIKR
B1 gave an IC50, cell-cell fusion assay (gp160-expressing HeLa cells with CEM.NKR-CCR5-Luc cells, luciferase) of 0.108 µg/mL.

B2: anti-CCR5 antibody with heavy chain variable domain SEQ ID NO: 7 and light chain variable domain SEQ ID NO: 9, mutated IgG1 (IgG1v2) constant region (antibody, name in EU numbering, V domains shown)
VH: QVQLQESGPGLVKPSQSLSITCTVSGFPLGAFGVHWVRQSPGKGLEWLGVIWKGGNTDYNAAFKSRLRITKDNSKSQVFFRMNSLQTDDTATYYCAKVNLADAMDYWGQGTTVTVSS
VL: DIQMTQSPASLSASVGETVTITCRASGNAHGYLAWYQQKPGKAPKLLIYNTKTLAEGVPSRFSGSGSGTQFSLKINSAQPEDFGNYYCQHHYDLPRTFGGGTKVEIKR
Take B2: the IC50, cell-cell fusion assay (gp160-expressing HeLa cells with CEM.NKR-CCR5-Luc cells, luciferase) turned out to be 0.046 µg/mL.

B3: anti-CCR5 antibody with heavy chain variable domain SEQ ID NO: 7 and light chain variable domain SEQ ID NO: 10, mutated IgG1 (IgG1v2) constant region (antibody, name in EU numbering, V domains shown)
VH: QVQLQESGPGLVKPSQSLSITCTVSGFPLGAFGVHWVRQSPGKGLEWLGVIWKGGNTDYNAAFKSRLRITKDNSKSQVFFRMNSLQTDDTATYYCAKVNLADAMDYWGQGTTVTVSS
VL: DIQMTQSPASLSASVGETVTITCRASGNAHGYLAWYQQKPGKAPKLLVYNTKTLAEGVPSRFSGSGSGTQFSLKINSAQPEDFGNYYCQHHYDLPRTFGGGTKVEIKR
B3 gave an IC50, cell-cell fusion assay (gp160-expressing HeLa cells with CEM.NKR-CCR5-Luc cells, luciferase) of 0.152 µg/mL.

B4: anti-CCR5 antibody with heavy chain variable domain SEQ ID NO: 8 and light chain variable domain SEQ ID NO: 10, mutated IgG1 (IgG1v2) constant region (antibody, name in EU numbering, V domains shown)
VH: QVQLQESGPGLVKPSQSLSITCTVSGFPLGAFGVHWVRQSPGKGLEWLGVIWKGGNTDYNAAFKSRLRITKDNSKSQVFFRMNSLQTDDTAIYYCAKVNLADAMDYWGQGTTVTVSS
VL: DIQMTQSPASLSASVGETVTITCRASGNAHGYLAWYQQKPGKAPKLLVYNTKTLAEGVPSRFSGSGSGTQFSLKINSAQPEDFGNYYCQHHYDLPRTFGGGTKVEIKR
Take B4: the IC50, cell-cell fusion assay (gp160-expressing HeLa cells with CEM.NKR-CCR5-Luc cells, luciferase) stood at 0.076 µg/mL.

B5: anti-CCR5 antibody with heavy chain variable domain SEQ ID NO: 6 and light chain variable domain SEQ ID NO: 10, mutated IgG1 (IgG1v2) constant region (antibody, name in EU numbering, V domains shown)
VH: QVQLQESGPGLVKPSQSLSITCTVSGFPLGAFGVHWVRQSPGKGPEWLGVIWKGGNTDYNAAFKSRLRITKDNSKSQVFFRMNSLQTDDTATYYCAKVNLADAMDYWGQGTTVTVSS
VL: DIQMTQSPASLSASVGETVTITCRASGNAHGYLAWYQQKPGKAPKLLVYNTKTLAEGVPSRFSGSGSGTQFSLKINSAQPEDFGNYYCQHHYDLPRTFGGGTKVEIKR
With B5, the IC50, cell-cell fusion assay (gp160-expressing HeLa cells with CEM.NKR-CCR5-Luc cells, luciferase) is 0.399 µg/mL.

B6: anti-CCR5 antibody with heavy chain variable domain SEQ ID NO: 8 and light chain variable domain SEQ ID NO: 9, mutated IgG1 (IgG1v2) constant region (antibody, name in EU numbering, V domains shown)
VH: QVQLQESGPGLVKPSQSLSITCTVSGFPLGAFGVHWVRQSPGKGLEWLGVIWKGGNTDYNAAFKSRLRITKDNSKSQVFFRMNSLQTDDTAIYYCAKVNLADAMDYWGQGTTVTVSS
VL: DIQMTQSPASLSASVGETVTITCRASGNAHGYLAWYQQKPGKAPKLLIYNTKTLAEGVPSRFSGSGSGTQFSLKINSAQPEDFGNYYCQHHYDLPRTFGGGTKVEIKR
In turn, B6 displayed an IC50, cell-cell fusion assay (gp160-expressing HeLa cells with CEM.NKR-CCR5-Luc cells, luciferase) of 0.132 µg/mL.
